Data reported in publication PMC8938473 (2022).

Biological target: GST-BpfD-In (BpfD intracellular domains) (Shewanella putrefaciens CN32)
Assay: MST

Kd: 4.9 µM
B1: His6-CRP (natural protein)
chain: MALIGKPKPDPTLEWFLSHCHIHKYPAKSTLIHAGEDSDTLYYIVKGSVAVLIKDEEGKEMILSYLNQGDFIGELGLFEEQAERTAWVRAKQACEIAEISYKKFKQLIQVNPEILMKLSAQMAYRLQSTSQKVGNLAFLDVAGRIAQTLLHLAKQPDAMTHPDGMQIKITRQEIGQIVGCSRETVGRILKMLEEQNLIQAHGKTIVVYGTR
modifications: labeled with NHS NT-647 dye (in the MST assay only)
